From patent US20040006777A1 (HSC RESEARCH AND DEVELOPMENT LIMITED PARTNERSHIP, published 2004)

Key:
[1] = target: p125Fak (human, UniProt Q05397 2-1052, limits assumed); assay: western blot of Lyp immunoprecipitates from anti-CD3 stimulated human thymocytes
Method: (§1) (A) Lyp immunoprecipitates from thymocytes (80×10⁶ cells) stimulated with anti-CD3 were blotted with antiphsophotyrosine. […] Lyp protein loading was quantitated by anti-Lyp western blot after stripping. […] (C) Lyp1 was transfected into COS-7 cells and Cbl immunoprecipitates prepared from these and untransfected cells. Western blotting was performed with Lyp antibodies. The position of Lyp is indicted by an arrow. Cbl immunoprecipitates were also prepared and blotted with anti-phosphotyrosine (D), and then anti-Cbl after stripping.
(§2) One of the earliest events following TCR stimulation of T cells is the induction of tyrosine phosphorylation. In order to determine whether Lyp played a role in TCR signalling, human thymocytes were stimulated with anti-CD3 for various periods of time, Lyp immunoprecipitated and blotted with anti-phosphotyrosine. […] Once activated, the phosphorylation level of this protein remained constant over a period of 20 minutes. […] This interaction was also observed in the mature T cell line Jurkat (not shown) and further confirmed by transfection of Lyp1 into COS-7 cells and examining its association with the endogenous Cbl protein (FIG. 13C).

[2] = target: T1, p116 Jak3 (endogenous, human thymocytes) (human, UniProt P52333 1-1124, limits assumed); assay: as above
T1 sequence (looked up): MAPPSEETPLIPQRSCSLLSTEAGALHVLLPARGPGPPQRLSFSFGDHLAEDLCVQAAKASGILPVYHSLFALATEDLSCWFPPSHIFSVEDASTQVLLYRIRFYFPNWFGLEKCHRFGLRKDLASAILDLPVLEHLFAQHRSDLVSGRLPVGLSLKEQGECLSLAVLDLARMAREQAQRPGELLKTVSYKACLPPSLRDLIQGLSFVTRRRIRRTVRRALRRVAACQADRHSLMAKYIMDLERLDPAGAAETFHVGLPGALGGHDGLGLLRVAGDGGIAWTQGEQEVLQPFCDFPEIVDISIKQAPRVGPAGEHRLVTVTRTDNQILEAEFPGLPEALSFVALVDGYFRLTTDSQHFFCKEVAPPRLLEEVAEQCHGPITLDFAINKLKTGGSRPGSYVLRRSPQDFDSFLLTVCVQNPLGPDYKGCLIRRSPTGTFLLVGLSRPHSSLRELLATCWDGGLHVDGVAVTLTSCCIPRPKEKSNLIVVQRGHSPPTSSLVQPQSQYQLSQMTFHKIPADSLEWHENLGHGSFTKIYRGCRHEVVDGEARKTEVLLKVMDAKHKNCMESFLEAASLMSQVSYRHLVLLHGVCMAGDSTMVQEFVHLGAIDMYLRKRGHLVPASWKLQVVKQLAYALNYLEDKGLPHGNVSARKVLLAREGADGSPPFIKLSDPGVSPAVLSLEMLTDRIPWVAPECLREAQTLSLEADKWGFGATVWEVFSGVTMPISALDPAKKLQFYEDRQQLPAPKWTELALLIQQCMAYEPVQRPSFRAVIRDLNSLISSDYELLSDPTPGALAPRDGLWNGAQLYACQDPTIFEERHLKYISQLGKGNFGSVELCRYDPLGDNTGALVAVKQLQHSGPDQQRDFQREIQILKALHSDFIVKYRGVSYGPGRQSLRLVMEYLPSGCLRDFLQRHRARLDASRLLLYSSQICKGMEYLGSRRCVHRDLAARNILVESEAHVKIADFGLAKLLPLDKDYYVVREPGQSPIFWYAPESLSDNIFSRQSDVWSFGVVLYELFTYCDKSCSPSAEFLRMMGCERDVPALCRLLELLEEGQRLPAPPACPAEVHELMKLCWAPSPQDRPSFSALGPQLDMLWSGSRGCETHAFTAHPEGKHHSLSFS
Method: as §1, §2

Sequence of p125Fak (Q05397 2-1052 limits assumed): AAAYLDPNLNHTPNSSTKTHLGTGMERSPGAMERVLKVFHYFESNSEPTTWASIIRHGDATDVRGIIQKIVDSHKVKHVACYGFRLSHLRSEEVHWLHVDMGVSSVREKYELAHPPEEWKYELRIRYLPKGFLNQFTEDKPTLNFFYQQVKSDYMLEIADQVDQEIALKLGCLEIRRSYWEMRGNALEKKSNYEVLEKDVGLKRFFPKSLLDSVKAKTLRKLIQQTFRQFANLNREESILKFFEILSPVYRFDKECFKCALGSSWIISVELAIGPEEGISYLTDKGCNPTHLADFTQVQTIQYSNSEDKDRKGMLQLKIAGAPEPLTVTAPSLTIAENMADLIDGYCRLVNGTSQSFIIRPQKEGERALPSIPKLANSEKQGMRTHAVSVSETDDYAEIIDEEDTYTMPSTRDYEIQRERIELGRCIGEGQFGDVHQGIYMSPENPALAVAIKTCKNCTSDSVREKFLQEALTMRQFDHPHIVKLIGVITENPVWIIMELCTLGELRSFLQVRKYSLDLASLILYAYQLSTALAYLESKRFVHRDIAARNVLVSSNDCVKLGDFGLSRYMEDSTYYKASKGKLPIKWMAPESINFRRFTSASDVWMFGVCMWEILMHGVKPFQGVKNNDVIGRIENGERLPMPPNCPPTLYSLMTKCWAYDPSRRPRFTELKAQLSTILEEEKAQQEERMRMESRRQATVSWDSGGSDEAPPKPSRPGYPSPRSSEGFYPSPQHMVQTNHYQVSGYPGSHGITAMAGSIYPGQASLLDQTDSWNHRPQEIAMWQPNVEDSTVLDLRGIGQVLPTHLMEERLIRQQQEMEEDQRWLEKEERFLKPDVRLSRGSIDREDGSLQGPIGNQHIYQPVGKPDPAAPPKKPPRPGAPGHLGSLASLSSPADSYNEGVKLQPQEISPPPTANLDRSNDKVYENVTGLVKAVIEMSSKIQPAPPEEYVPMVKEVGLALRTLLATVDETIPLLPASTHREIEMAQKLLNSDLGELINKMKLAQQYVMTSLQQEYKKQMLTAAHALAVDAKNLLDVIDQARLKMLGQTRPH

B1: Lyp1 (human lymphoid protein tyrosine phosphatase, 105 kD) (enzyme)
chain: MDQREILQKFLDEAQSKKITKEEFANEFLKLKRQSTKYKADKTYPTTVAENAKNIKKNRYKDILPYDYSRVELSLITSDEDSSYINANFIKGVYGPKAYIATQGPLSTTLLDFWRMIWEYSVLIIVMACMEYEMGKKKCERYWAEPGEMQLEFGPFSVSCEAEKRKSDYIIRTLKVKFNSETRTIYQFHYKNWPDHDVPSSIDPILELIWDVRCYQEDDSVPICIHCSAGCGRTGVICAIVDYTWMLLKDGIIPENFSVFSLIREMRTQRPSLVQTQEQYELVYNAVLELFKRQMDVIRDKHSGTESQAKHCIPEKNHTLQADSYSPNLPKSTTKAAKMMNQQRTKMEIKESSSFDFRTSEISAKEELVLHPAKSSTSFDFLELNYSFDKNADTTMKWQTKAFPIVGEPLQKHQSLDLGSLLFEGCSNSKPVNAAGRYFNSKVPITRTKSTPFELIQQRETKEVDSKENFSYLESQPHDSCFVEMQAQKVMHVSSAELNYSLPYDSKHQIRNASNVKHHDSSALGVYSYIPLVENPYFSSWPPSGTSSKMSLDLPEKQDGTVFPSSLLPTSSTSLFSYYNSHSSLSLNSPTNISSLLNQESAVLATAPRIDDEIPPPLPVRTPESFIVVEEAGEFSPNVPKSLSSAVKVKIGTSLEWGGTSEPKKFDDSVILRPSKSVKLRSPKSELHQDRSSPPPPLPERTLESFFLADEDCMQAQSIETYSTSYPDTMENSTSSKQTLKTPGKSFTRSKSLKILRNMKKSICNSCPPNKPAESVQSNNSSSFLNFGFANRFSKPKGPRNPPPTWNI
notes: also called native Lyp1; pcDNA3-Lyp1
binding result [1]: no binding | binding result [2]: no binding
